Measured values from patent US20260015421A1.

Biological target: CD19 on CD19+ cells (Raji, Nalm6) (human) (UniProt P15391)
Experiment: cell-based or functional assay

Chain of UniProt P15391 (P15391 20-556): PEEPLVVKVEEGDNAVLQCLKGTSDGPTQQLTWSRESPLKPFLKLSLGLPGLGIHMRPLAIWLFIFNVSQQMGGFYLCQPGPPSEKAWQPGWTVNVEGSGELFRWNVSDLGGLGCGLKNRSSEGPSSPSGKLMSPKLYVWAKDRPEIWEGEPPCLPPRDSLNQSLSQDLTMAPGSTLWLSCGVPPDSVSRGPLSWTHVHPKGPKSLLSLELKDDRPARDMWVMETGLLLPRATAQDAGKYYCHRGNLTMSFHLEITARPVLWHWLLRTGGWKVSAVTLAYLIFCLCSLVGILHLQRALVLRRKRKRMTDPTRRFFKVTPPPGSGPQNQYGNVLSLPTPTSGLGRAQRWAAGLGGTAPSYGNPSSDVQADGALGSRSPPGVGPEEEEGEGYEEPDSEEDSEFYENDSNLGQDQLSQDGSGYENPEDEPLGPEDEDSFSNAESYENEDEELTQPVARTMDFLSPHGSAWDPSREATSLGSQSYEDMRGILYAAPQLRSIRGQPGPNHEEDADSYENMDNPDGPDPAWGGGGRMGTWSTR

Substance: non-signaling CD19 CAR FMC63-CD8h-CD28TMCo-noZ (IL15 co-expressed), on γδ T cells (from UniProt P01732 138-182; P10747 153-220)
- cytotoxicity against CD19+ Nalm6 ALL cells (7-AAD/CFSE flow cytometry, E:T=0.25-4.0) (fold over non-transduced control): 1.5
